T1: FcγRIIb (human, UniProt P31994 43-217)
T1 construct: extracellular domain; Soluble extracellular domain with C-terminal His tag, used as analyte in Biacore; also called FcgRIIb; 2b; not shown: His tag attached to the C terminus
T1 sequence (looked up): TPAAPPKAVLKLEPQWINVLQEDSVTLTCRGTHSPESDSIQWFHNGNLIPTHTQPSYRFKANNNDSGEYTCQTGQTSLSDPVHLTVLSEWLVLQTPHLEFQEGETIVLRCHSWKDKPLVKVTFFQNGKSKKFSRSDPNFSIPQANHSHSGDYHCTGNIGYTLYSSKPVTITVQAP

B1: GpH7-A5/GpH7-B3 variant P238_20W/GpL16-k0 (antibody, human IgG1, kappa)
heavy 1: not shown
heavy 2: not shown
light: DIVMTQSPLSLPVTPGEPASISCQASESLVHSNRNTYLHWYLQKPGQSPQLLIYKVSNRFSGVPDRFSGSGSGTDFTLKISRVEAEDVGVYYCSQNTHVPPTFGQGTKVEIERTVAAPSVFIFPPSDEQLKSGTASVVCLLNNFYPREAKVQWKVDNALQSGNSQESVTEQDSKDSTYSLSSTLTLSKADYEKHKVYACEVTHQGLSSPVTKSFNRGEC
notes: Heterodimerized anti-glypican-3 IgG1; alteration in the GpH7-B3 chain only; also called He Ab
B2: GpH7-A5/GpH7-B3 variant S324_06M/GpL16-k0 (antibody, human IgG1, kappa)
heavy 1: not shown
heavy 2: not shown
light: B1 light
notes: as for B1
B3: GpH7-A5/GpH7-B3 variant S239_07I/GpL16-k0 (antibody, human IgG1, kappa)
heavy 1: not shown
heavy 2: not shown
light: B1 light
notes: as for B1
B4: GpH7-A5/GpH7-B3 variant P331_04F/GpL16-k0 (antibody, human IgG1, kappa)
heavy 1: not shown
heavy 2: not shown
light: B1 light
notes: as for B1
B5: GpH7-A5/GpH7-B3 variant S239_06M/GpL16-k0 (antibody, human IgG1, kappa)
heavy 1: not shown
heavy 2: not shown
light: B1 light
notes: as for B1
B6: GpH7-A5/GpH7-B3 variant S239_05P/GpL16-k0 (antibody, human IgG1, kappa)
heavy 1: not shown
heavy 2: not shown
light: B1 light
notes: as for B1
B7: GpH7-A5/GpH7-B3 variant P331_03V/GpL16-k0 (antibody, human IgG1, kappa)
heavy 1: not shown
heavy 2: not shown
light: B1 light
notes: as for B1
B8: GpH7-A5/GpH7-B3 variant S267_07I/GpL16-k0 (antibody, human IgG1, kappa)
heavy 1: not shown
heavy 2: not shown
light: B1 light
notes: as for B1
B9: GpH7-A5/GpH7-B3 variant V266_07I/GpL16-k0 (antibody, human IgG1, kappa)
heavy 1: not shown
heavy 2: not shown
light: B1 light
notes: as for B1
B10: GpH7-A5/GpH7-B3 variant S239_03V/GpL16-k0 (antibody, human IgG1, kappa)
heavy 1: not shown
heavy 2: not shown
light: B1 light
notes: as for B1
B11: GpH7-A5/GpH7-B3 variant P331_06M/GpL16-k0 (antibody, human IgG1, kappa)
heavy 1: not shown
heavy 2: not shown
light: B1 light
notes: as for B1
B12: GpH7-A5/GpH7-B3 variant P331_10E/GpL16-k0 (antibody, human IgG1, kappa)
heavy 1: not shown
heavy 2: not shown
light: B1 light
notes: as for B1
B13: GpH7-A5/GpH7-B3 variant V266_08L/GpL16-k0 (antibody, human IgG1, kappa)
heavy 1: not shown
heavy 2: not shown
light: B1 light
notes: as for B1
B14: GpH7-A5/GpH7-B3 variant P331_07I/GpL16-k0 (antibody, human IgG1, kappa)
heavy 1: not shown
heavy 2: not shown
light: B1 light
notes: as for B1
B15: GpH7-A5/GpH7-B3 variant P331_15Y/GpL16-k0 (antibody, human IgG1, kappa)
heavy 1: not shown
heavy 2: not shown
light: B1 light
notes: as for B1
B16: GpH7-B3 variant P271_02A/GpL16-k0 (antibody, human IgG1, kappa)
heavy: not shown
light: B1 light
notes: homodimerized IgG1, mutation in both H chains; also called Ho Ab
B17: GpH7-B3 variant E333_01G/GpL16-k0 (antibody, human IgG1, kappa)
heavy: not shown
light: B1 light
notes: as for B16
B18: GpH7-B3 variant P271_04F/GpL16-k0 (antibody, human IgG1, kappa)
heavy: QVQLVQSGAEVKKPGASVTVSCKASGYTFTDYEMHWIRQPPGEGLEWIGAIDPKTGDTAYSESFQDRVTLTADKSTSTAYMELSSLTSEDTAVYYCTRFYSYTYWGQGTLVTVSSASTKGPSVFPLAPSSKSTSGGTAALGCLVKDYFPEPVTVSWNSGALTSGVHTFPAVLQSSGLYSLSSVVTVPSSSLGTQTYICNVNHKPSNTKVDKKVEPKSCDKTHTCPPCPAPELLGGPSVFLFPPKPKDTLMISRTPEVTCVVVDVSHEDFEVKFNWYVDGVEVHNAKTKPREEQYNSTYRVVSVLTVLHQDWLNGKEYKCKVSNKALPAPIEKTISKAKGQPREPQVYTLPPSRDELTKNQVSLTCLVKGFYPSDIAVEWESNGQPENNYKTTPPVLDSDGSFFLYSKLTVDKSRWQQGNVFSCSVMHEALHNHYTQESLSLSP
light: B1 light
notes: as for B16
B19: GpH7-B3 variant A330_14T/GpL16-k0 (antibody, human IgG1, kappa)
heavy: not shown
light: B1 light
notes: as for B16
B20: GpH7-B3 variant I336_01G/GpL16-k0 (antibody, human IgG1, kappa)
heavy: not shown
light: B1 light
notes: as for B16
B21: GpH7-B3 variant I336_10E/GpL16-k0 (antibody, human IgG1, kappa)
heavy: not shown
light: B1 light
notes: as for B16
B22: GpH7-B3 variant P271_06M/GpL16-k0 (antibody, human IgG1, kappa)
heavy: not shown
light: B1 light
notes: as for B16
B23: GpH7-B3 variant A327_09D/GpL16-k0 (antibody, human IgG1, kappa)
heavy: not shown
light: B1 light
notes: as for B16
B24: GpH7-B3 variant K334_10E/GpL16-k0 (antibody, human IgG1, kappa)
heavy: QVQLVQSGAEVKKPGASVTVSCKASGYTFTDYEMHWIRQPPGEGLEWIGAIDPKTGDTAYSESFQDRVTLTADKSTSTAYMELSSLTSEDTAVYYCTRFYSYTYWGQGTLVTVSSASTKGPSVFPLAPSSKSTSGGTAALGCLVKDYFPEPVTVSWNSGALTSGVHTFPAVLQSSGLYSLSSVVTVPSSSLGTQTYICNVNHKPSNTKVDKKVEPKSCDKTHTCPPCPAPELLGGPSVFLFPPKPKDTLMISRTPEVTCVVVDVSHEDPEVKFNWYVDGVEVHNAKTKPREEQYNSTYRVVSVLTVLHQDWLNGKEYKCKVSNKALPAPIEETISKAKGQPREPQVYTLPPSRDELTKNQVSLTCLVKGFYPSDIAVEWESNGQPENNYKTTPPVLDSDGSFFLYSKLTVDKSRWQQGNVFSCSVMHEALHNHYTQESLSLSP
light: B1 light
notes: as for B16
B25: GpH7-B3 variant K326_14T/GpL16-k0 (antibody, human IgG1, kappa)
heavy: not shown
light: B1 light
notes: as for B16
B26: GpH7-B3 variant A330_08L/GpL16-k0 (antibody, human IgG1, kappa)
heavy: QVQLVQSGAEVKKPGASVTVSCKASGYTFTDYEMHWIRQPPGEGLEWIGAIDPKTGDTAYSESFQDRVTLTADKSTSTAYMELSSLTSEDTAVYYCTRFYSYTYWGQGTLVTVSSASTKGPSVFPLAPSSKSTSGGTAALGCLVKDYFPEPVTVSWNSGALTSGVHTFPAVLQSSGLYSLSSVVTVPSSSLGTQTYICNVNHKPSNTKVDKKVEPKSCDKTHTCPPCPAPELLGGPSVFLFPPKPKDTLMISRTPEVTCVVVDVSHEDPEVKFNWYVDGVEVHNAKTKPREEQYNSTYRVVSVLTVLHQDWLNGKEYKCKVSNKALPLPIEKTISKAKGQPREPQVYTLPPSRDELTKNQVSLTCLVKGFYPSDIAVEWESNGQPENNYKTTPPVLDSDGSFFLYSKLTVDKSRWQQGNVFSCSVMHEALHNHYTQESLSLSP
light: B1 light
notes: as for B16
B27: GpH7-B3 variant K326_15Y/GpL16-k0 (antibody, human IgG1, kappa)
heavy: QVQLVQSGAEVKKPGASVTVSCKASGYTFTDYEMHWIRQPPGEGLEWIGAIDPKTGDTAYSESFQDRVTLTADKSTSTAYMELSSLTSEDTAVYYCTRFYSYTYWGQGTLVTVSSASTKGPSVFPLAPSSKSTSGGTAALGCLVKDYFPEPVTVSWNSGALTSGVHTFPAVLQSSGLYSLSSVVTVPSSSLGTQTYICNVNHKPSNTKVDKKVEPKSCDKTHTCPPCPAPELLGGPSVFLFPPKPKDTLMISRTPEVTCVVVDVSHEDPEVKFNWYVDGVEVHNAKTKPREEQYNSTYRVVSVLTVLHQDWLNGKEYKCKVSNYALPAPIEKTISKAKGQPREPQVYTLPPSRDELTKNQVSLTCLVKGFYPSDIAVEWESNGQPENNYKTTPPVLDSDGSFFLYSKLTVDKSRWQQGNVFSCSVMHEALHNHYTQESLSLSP
light: B1 light
notes: as for B16
B28: GpH7-B3 variant E269_06M/GpL16-k0 (antibody, human IgG1, kappa)
heavy: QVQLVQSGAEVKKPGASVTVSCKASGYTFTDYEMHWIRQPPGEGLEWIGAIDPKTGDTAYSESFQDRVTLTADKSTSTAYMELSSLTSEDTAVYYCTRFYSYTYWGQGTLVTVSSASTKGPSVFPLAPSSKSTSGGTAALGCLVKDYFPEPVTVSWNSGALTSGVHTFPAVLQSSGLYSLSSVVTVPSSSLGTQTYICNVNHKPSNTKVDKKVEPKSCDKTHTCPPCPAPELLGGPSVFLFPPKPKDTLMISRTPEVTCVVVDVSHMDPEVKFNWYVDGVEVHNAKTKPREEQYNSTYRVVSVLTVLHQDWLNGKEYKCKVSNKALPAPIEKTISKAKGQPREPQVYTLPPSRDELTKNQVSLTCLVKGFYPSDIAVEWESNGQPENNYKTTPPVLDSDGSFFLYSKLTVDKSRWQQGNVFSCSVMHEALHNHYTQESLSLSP
light: B1 light
notes: as for B16
B29: GpH7-B3 variant G236_20W/GpL16-k0 (antibody, human IgG1, kappa)
heavy: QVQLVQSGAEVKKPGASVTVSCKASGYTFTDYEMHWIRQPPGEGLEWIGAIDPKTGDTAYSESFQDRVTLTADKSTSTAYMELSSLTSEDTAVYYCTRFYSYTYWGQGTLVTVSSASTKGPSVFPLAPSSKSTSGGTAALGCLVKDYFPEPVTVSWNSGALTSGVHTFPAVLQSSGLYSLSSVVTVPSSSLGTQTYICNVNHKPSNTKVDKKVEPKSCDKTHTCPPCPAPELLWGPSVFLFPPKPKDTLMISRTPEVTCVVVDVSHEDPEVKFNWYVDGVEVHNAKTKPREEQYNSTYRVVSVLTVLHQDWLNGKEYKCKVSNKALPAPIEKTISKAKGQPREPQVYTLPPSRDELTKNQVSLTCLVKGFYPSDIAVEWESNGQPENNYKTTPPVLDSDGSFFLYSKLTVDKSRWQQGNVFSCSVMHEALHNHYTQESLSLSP
light: B1 light
notes: as for B16
B30: GpH7-B3 variant I336_03V/GpL16-k0 (antibody, human IgG1, kappa)
heavy: not shown
light: B1 light
notes: as for B16
B31: GpH7-B3 variant E269_04F/GpL16-k0 (antibody, human IgG1, kappa)
heavy: not shown
light: B1 light
notes: as for B16
B32: GpH7-B3 variant P271_11K/GpL16-k0 (antibody, human IgG1, kappa)
heavy: not shown
light: B1 light
notes: as for B16
B33: GpH7-B3 variant I336_02A/GpL16-k0 (antibody, human IgG1, kappa)
heavy: not shown
light: B1 light
notes: as for B16
B34: GpH7-B3 variant A330_09D/GpL16-k0 (antibody, human IgG1, kappa)
heavy: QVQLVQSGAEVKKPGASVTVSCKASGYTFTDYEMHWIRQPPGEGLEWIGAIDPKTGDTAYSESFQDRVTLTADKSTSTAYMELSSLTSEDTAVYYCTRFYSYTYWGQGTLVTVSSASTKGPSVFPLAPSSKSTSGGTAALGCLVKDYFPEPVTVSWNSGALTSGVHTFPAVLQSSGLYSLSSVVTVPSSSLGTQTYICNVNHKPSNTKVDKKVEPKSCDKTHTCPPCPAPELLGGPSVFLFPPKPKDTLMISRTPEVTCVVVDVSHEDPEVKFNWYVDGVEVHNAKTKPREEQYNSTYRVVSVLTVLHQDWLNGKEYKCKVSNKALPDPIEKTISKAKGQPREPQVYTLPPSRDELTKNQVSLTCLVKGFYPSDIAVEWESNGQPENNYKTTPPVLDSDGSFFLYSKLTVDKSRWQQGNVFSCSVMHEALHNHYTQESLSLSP
light: B1 light
notes: as for B16
B35: GpH7-B3 variant I336_18N/GpL16-k0 (antibody, human IgG1, kappa)
heavy: not shown
light: B1 light
notes: as for B16
B36: GpH7-B3 variant I336_06M/GpL16-k0 (antibody, human IgG1, kappa)
heavy: not shown
light: B1 light
notes: as for B16
B37: GpH7-B3 variant I336_04F/GpL16-k0 (antibody, human IgG1, kappa)
heavy: not shown
light: B1 light
notes: as for B16
B38: GpH7-B3 variant E269_08L/GpL16-k0 (antibody, human IgG1, kappa)
heavy: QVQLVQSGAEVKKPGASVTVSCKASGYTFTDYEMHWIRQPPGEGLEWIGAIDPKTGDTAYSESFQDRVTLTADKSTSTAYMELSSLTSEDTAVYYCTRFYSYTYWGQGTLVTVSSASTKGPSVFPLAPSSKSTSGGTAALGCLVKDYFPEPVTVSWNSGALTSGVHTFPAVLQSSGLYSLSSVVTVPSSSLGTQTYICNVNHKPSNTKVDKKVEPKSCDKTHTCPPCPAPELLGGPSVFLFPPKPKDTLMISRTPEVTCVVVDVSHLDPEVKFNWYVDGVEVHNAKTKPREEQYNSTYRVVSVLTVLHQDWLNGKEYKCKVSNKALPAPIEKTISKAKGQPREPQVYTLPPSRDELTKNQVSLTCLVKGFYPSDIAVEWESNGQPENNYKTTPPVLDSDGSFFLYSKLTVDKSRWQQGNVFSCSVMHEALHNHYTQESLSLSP
light: B1 light
notes: as for B16
B39: GpH7-B3 variant P271_07I/GpL16-k0 (antibody, human IgG1, kappa)
heavy: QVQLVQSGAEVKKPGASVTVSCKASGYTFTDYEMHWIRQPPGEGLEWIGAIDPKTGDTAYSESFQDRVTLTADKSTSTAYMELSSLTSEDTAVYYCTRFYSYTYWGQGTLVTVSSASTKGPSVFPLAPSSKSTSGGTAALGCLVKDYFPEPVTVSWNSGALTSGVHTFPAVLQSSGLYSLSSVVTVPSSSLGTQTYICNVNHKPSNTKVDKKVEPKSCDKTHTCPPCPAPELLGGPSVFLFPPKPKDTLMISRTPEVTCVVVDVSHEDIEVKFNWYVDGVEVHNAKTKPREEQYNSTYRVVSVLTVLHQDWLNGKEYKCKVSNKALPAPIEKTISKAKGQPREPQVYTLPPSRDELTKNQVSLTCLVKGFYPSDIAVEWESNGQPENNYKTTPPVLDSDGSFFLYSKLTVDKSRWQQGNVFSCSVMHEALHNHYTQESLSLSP
light: B1 light
notes: as for B16
B40: GpH7-B3 variant E333_13S/GpL16-k0 (antibody, human IgG1, kappa)
heavy: not shown
light: B1 light
notes: as for B16
B41: GpH7-B3 variant P271_03V/GpL16-k0 (antibody, human IgG1, kappa)
heavy: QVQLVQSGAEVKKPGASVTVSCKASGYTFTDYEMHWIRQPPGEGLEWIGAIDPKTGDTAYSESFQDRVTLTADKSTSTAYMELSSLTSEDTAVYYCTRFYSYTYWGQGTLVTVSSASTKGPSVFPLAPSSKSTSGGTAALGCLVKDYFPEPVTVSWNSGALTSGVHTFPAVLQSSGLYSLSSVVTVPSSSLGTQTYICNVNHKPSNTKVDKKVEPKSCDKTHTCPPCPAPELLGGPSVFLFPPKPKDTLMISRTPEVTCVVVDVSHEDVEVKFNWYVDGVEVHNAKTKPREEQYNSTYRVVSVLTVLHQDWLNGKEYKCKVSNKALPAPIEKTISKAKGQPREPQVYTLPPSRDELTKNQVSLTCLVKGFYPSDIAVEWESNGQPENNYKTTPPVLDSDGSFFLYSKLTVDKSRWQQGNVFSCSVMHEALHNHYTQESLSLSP
light: B1 light
notes: as for B16
B42: GpH7-B3 variant K326_16H/GpL16-k0 (antibody, human IgG1, kappa)
heavy: not shown
light: B1 light
notes: as for B16
B43: GpH7-B3 variant E269_15Y/GpL16-k0 (antibody, human IgG1, kappa)
heavy: not shown
light: B1 light
notes: as for B16

One experiment deals with T2, FcγRIa (human, UniProt P12314 16-292).
T2 construct: extracellular domain; Soluble extracellular domain with C-terminal His tag, used as analyte in Biacore; also called FcgRI; 1a; not shown: His tag attached to the C terminus
Nature of the experiment: SPR (Biacore), antibody captured, FcγR as analyte; relative to GpH7-A5/GpH7-B3/GpL16-k0 = 100. As for the experimental part: (§1) The heterodimerized antibodies He Abs in which one of the H chains was introduced with an alteration were assayed for their binding activities to each activating FcγR and inhibitory FcγR according to the method described in Example 4. […] The activating FcγRs in FIGS. 26, 27, 28, and 29 are FcγRIa, FcγRIIa (R), FcγRIIa (H), and FcγRIIIa, respectively.
(§2) Analysis of interaction between objective antibody and the FcγR was carried out using Biacore T100 (GE Healthcare). HBS-EP+ (GE Healthcare) was used as the running buffer, and the measurement temperature was set to 25° C. Chips produced by immobilizing the antigen peptide by the amine coupling method to a Series S Sencor Chip CM5 (GE Healthcare), or alternatively, chips produced by allowing preliminarily biotinylated antigen peptides to interact with and immobilize onto a Series S Sensor Chip SA (certified) (GE Healthcare) were used. Antibodies of interest were captured onto an antigen peptide-immobilized chip, and allowed to interact to each FcγR diluted with running buffer. To regenerate and repeatedly use the chip, the antibodies captured on the chip were washed off by reacting 10 mM glycine-HCl, pH 1.5.
Background: Surface plasmon resonance follows binding to a sensor surface in real time, without labels.
T2 sequence (P12314 16-292): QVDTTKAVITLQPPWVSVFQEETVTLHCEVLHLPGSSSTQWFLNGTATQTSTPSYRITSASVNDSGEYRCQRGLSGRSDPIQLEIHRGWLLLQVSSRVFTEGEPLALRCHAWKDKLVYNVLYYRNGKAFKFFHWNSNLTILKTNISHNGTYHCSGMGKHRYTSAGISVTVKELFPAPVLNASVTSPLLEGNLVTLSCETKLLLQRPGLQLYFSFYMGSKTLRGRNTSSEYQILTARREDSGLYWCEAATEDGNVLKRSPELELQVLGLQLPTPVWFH
As to B1, the He/Con_1a is 99.9 % of control (=100). For B2, the He/Con_1a was 99.2 % of control (=100). Consider B3, for which the He/Con_1a was 97.8 % of control (=100). On the same count and under the same terms, the figure for B4 is 95.5 % of control (=100); for B5 it is 99 % of control (=100). On to B6, for which the He/Con_1a was 85.3 % of control (=100).

With B7, the He/Con_1a is 92 % of control (=100). Still for that read-out and setting: under B8 stands 100 % of control (=100). As for B9, the He/Con_1a was 99.3 % of control (=100). The same measure, in the same setting: the figure for B10 is 95.9 % of control (=100); for B11 it is 93.6 % of control (=100). Still for that read-out and setting: under B12 stands 95 % of control (=100); under B13, 98.1 % of control (=100); under B14, 93.4 % of control (=100).

As to B15, the He/Con_1a was 96 % of control (=100).

In another experiment the target is T1, FcγRIIb. The description is as above. As for the experimental part: as §1, §2
For the molecule B1, the He/Con_2b was 123 % of control (=100).

For the molecule B2, the He/Con_2b was 112 % of control (=100). The same measure, in the same setting: under B3 stands 107 % of control (=100); under B4, 110 % of control (=100). On the same count and under the same terms, under B5 stands 101 % of control (=100); under B6, 102 % of control (=100); under B7, 119 % of control (=100).

Regarding B8, the He/Con_2b was 192 % of control (=100).

As to B9, the He/Con_2b was 152 % of control (=100). Same read-out and setting: the figure for B10 is 108 % of control (=100); for B11 it is 102 % of control (=100). Turning to B12, the He/Con_2b was 116 % of control (=100).

As for B13, the He/Con_2b was 236 % of control (=100).

B14: the He/Con_2b is 114 % of control (=100). B15: the He/Con_2b is 114 % of control (=100).

The target in another experiment is T3, FcγRIa (human, UniProt P12314 16-292).
T3 construct: extracellular domain; soluble extracellular domain with C-terminal His tag, expressed in FreeStyle293 cells; also called FcgRI; FcgRIa
Description: SPR (Biacore), captured antibody, FcγRIa analyte; relative to HoCon Ab GpH7-B3/GpL16-k0 = 100.
T3 sequence (P12314 16-292): as above
On to B16, for which the Ho/Con_1a was 102 % of control. With B17, the Ho/Con_1a was 100 % of control. On the same count and under the same terms, the figure for B18 is 100 % of control; for B19 it is 105 % of control.

Regarding B20, the Ho/Con_1a was 104 % of control. On the same count and under the same terms, the figure for B21 is 107 % of control; for B22 it is 102 % of control; for B23 it is 102 % of control. The same measure, in the same setting: under B24 stands 107 % of control; under B25, 103 % of control; under B26, 106 % of control. Still for that read-out and setting: under B27 stands 101 % of control; under B28, 101 % of control; under B29, 104 % of control.

As to B30, the Ho/Con_1a was 105 % of control. On the same count and under the same terms, the figure for B31 is 102 % of control. The same measure, in the same setting: the figure for B32 is 101 % of control. On the same count and under the same terms, under B33 stands 103 % of control. Take B34: the Ho/Con_1a was 108 % of control. As for B35, the Ho/Con_1a is 104 % of control. The same measure, in the same setting: under B36 stands 104 % of control; under B37, 104 % of control. Still for that read-out and setting: the figure for B38 is 101 % of control. The same measure, in the same setting: the figure for B39 is 102 % of control; for B40 it is 101 % of control; for B41 it is 102 % of control.

Turning to B42, the Ho/Con_1a is 101 % of control. For the molecule B43, the Ho/Con_1a was 100 % of control.

The record behind these values is patent US20150344570A1 (published 2015).
